B1: zanolimumab (antibody, listed as Homo sapiens, V domains shown)
VH: QVQLQQWGAGLLKPSETLSLTCAVYGGSFSGYYWSWIRQPPGKGLEWIGEINHSGSTNYNPSLKSRVTISVDTSKNQFSLKLSSVTAADTAVYYCARVINWFDPWGQGTLVT
VL: DIQMTQSPSSVSASVGDRVTITCRASQDISSWLAWYQHKPGKAPKLLIYAASSLQSGVPSRFSGSGSGTDFTLTISSLQPEDFATYYCQQANSFPYTFGQGTKLEIK
modifications: anti CD4 Vh; anti CD4 VL
notes: anti-CD4 monoclonal human antibody (GenMab, Denmark), same as 6G5 of WO97/13852

Legend:
Format in all cases: cell-based, human
Dok-1 = assay: SH2-precipitation (SH2C-RasGAP-GST) and Dok-1 blot of lysates from CD4+ T cells incubated with zanolimumab; details: SH2-precipitate; for amount of precipitated Dok-1 after inhibitor pre-treatment: cells pre-incubated with inhibitor before zanolimumab exposure, FIG. 3D
Protocol: (§1) FIG. 3 illustrates results from CD4^+ T cells incubated with zanolimumab or a human immunoglobulin negative control. Cell lysates were CD4-precipitated (A), SH2-precipitated (B, D) or used as whole lysate (C). FIG. 3A: Two CD4-precipitates were submitted to a kinase assay (upper two panels). Blots were probed with antibodies to p56^Ick (top panel), the p56^Ick substrate α-casein (second panel), Y-394 phosphorylated p56^Ick (third panel), p56^Ick (fourth panel) or CD4 (bottom panel). The numbers below the blots represent densitometric values normalized for p56^Ick loading. FIG. 3B: Blots with SH2-precipitate were incubated with antibodies to Dok-1 (top panel) or GST (bottom panel). The numbers below the blots represent densitometric values normalized for GST loading. FIG. 3C: Proteins in whole cell lysate were separated by SDS-PAGE and blotted. Membranes were incubated with antibodies to phosphorylated SHIP-1 (top panel) or SHIP-1 regardless of phosphorylation status (bottom panel). The numbers below the blots represent densitometric values normalized for SHIP-1 loading. FIG. 3D: Before zanolimumab exposure, cells were pre-incubated with Src kinase inhibitors PP2 or damnacanthal (DAM). Blots were incubated with antibodies for Dok-1 (top panel) or GST (bottom panel). The numbers below the blots represent densitometric values normalized for GST loading. Results for the experiments shown here are representative of 4 independent experiments.
The activation of inhibitory adaptor molecules in T cells presented in FIG. 3 were obtained with CD4^+ T cells isolated as described in example 1. CD4^+ T cells (3×10E7 cells) were incubated with zanolimumab and, when appropriate, pre-incubated with Src kinase inhibitors PP2 or damnacanthal (Merck Biosciences, Nottingham, UK) before exposure to zanolimumab. Cell lysates were incubated with CD4-precipitating antibody and antibody-bound proteins were precipitated with protein-G sepharose. […] Proteins were detected with an HRP-conjugated secondary antibody, visualized by ECL and quantified using a phosphor-imager.

SHIP-1 = assay: Whole cell lysate blot for phosphorylated SHIP-1 in CD4+ T cells incubated with zanolimumab; details: FIG. 3C
Protocol: as §1, with “FIG. 3D: Before zanolimumab exposure, cells were pre-incubated with Src kinase inhibitors PP2 or damnacanthal (DAM). Blots were incubated with antibodies for Dok-1 (top panel) or GST (bottom panel). The numbers below the blots represent densitometric values normalized for GST loading. Results for the experiments shown here are representative of 4 independent experiments.” left out
The activation of inhibitory adaptor molecules in T cells presented in FIG. 3 were obtained with CD4^+ T cells isolated as described in example 1. […] Proteins were detected with an HRP-conjugated secondary antibody, visualized by ECL and quantified using a phosphor-imager.

CD4^+ T cells = assay: Western blotting of T-cell signaling molecules in CD4+ T cells incubated with zanolimumab and stimulated with immobilized CD3 monoclonal antibody (OKT3)
Protocol: FIG. 2 illustrates results of Western blotting of cell lysates prepared from CD4^+ T cells stimulated with CD3 monoclonal antibody and zanolimumab. CD4^+ T cells were incubated with HuMax-CD4 and then stimulated with CD3 monoclonal antibody (OKT3) immobilized onto latex beads. Proteins in duplicate cell lysate samples were separated by 7-15% gradient gel SDS-PAGE and were transferred onto blotting membranes by electrophoresis. One membrane was incubated with a phosphotyrosine specific antibody, stripped and then re-probed with TCRζ and LAT specific antibodies (FIG. 2A). The other was incubated with antibodies to the phosphorylated form of specific proteins, stripped and then re-probed with ZAP-70 (2B), Erk1/2, p38 and AKT antibodies (2C). The numbers below the blots represent densitometric values normalized for loading relative to values observed after 2 min of CD3-stimulation in the absence of HuMax-CD4. Results for the experiments shown here are representative of 4 independent experiments.
The effect on T-cell signaling molecules upon T-cell activation presented in FIG. 2 were obtained with CD4^+ T cells isolated from peripheral blood from healthy donors. CD4^+ T cells were isolated using enrichment RosetteSep cocktail (Stemcell Technologies Inc, Canada) and separated by lymphoprep (Axis Shield, Poc AS, Norway) density centrifugation. CD4^+ T cells (10^7 cells) were incubated with zanolimumab and then stimulated with CD3 monoclonal antibody (OKT3, available from Orthoclone, Pharmacy, UMC, Utrecht) immobilized onto latex beads. Cell were lysed using lysis buffer (1% Nonidet P-40, 20 mM Tris-HCl, pH 7.4, 150 mM NaCl, 2 mM EGTA, 1 mM Na3VO4, 10 mM NaF, 10 mM sodium pyrophosphate and protease inhibitors (Roche Molecular Biochemicals, Sussex, UK)). Proteins in duplicate cell lysate samples were separated by 7-15% gradient gel SDS-PAGE and transferred onto blotting membranes by electrophoresis. Membranes were incubated with antibodies for specific tyrosine-phosphorylated proteins, stripped and then re-probed with antibodies recognizing the specific proteins regardless of their phosphorylation status. Proteins were detected with an HRP-conjugated secondary antibody, visualized by ECL and quantified using a phosphor-imager.

Molecule | amount of precipitated Dok-1 after inhibitor pre-treatment (Dok-1) | phosphorylation of Dok-1 (Dok-1; FIG. 3B) | phosphorylation of SHIP-1 (SHIP-1) | tyrosine-phosphorylation of intracellular proteins following TCR stimulation (CD4^+ T cells; TCR stimulation via immobilized CD3 monoclonal antibody, FIG. 2A) | phosphorylation of LAT (36-38 kDa) (CD4^+ T cells; after CD3 stimulation, FIG. 2A) | phosphorylation of p21 and p23 phosphorylated isomers of the TCR-ζ chain (CD4^+ T cells; after CD3 stimulation, FIG. 2A) | phosphorylation of ZAP-70 (CD4^+ T cells; after CD3 stimulation, FIG. 2B) | AKT/PKB downstream signaling pathway (CD4^+ T cells; after CD3 stimulation, FIG. 2C) | Erk1/2 downstream signaling pathway (CD4^+ T cells; after CD3 stimulation, FIG. 2C) | p38 serine/threonine downstream signaling pathway (CD4^+ T cells; after CD3 stimulation, FIG. 2C) | inhibition of the very earliest T-cell activation events (CD4^+ T cells; summary of Example 1, densitometry relative to CD3 stimulation without antibody)
CC(C)(C)n1nc(-c2ccc(Cl)cc2)c2c(N)ncnc21 [PP2] | reduced amount of precipitated Dok-1 |  |  |  |  |  |  |  |  |  | 
COc1c(C=O)c(O)cc2c1C(=O)c1ccccc1C2=O [damnacanthal] | reduced amount of precipitated Dok-1 |  |  |  |  |  |  |  |  |  | 
B1 |  | induces phosphorylation | induces phosphorylation | generalized inhibition | inhibited | markedly inhibited | inhibition | inhibits | inhibits | inhibits | about 50%

Source: patent publication US9309315B2, “Therapy with CD4 binding peptides and radiation” (GENMAB A/S, priority 2005, dated 2016)
